Source: patent US20210047373A1, “BETA BARREL POLYPEPTIDES AND METHODS FOR THEIR USE” (UNIVERSITY OF WASHINGTON, priority 2018, published 2021)
Residue numbers refer to the chain shown, from its start. Names and notes keep the numbering of the source.

Experiments:
[1] = Fluorescence brightness with DFHBI-1T; type: biochemical; conditions: normalized 0 to 1 across all three chromophores; average ± SD of two protein concentrations
Protocol: (§1) Table 3A-C. Brightness and chromophore affinities of selected mFAP variants. Fluorescence brightness measurements at 10 μM (top table) and 100 nM (middle table) chromophore concentrations were normalized from 0 to 1 across all three chromophores (DFHBI, DFHBI-1T, and DFHO), and the normalized values for two protein concentrations tested for each chromophore at each chromophore concentration were averaged and standard deviations of the average computed. Reported values are the normalized averages and standard deviations of the means for each chromophore concentration and each chromophore. Reported relative densitometry values are the relative densitometry values normalized from 0 to 1 and represent how well each design expresses relative to one another in Lemo21(DE3) E. coli cultures. Thermodynamic dissociation constants (bottom table) are obtained by non-linear least squares fitting of chromophore titrations (n=1) to a single binding site isotherm, and values reported with the standard deviation of the fit. Where the obtained Kd values are below the protein concentration tested, the Kd and standard deviation of the fit are reported in parentheses. Values with “N/D” were not determined.

[2] = Chromophore titration, fit to single binding site isotherm: DFHBI; conditions: for Kd: n=1 titration, ± SD of the fit, Table 3C, read-out: DFHBI Kd
Protocol: (§2) Fluorescence binding assay. Protein-activated DFHBI fluorescence signals were measured in 96-well plate format (Corning 3650) on a Synergy neo2 plate reader (BioTek, Inc) with λex=450 nm or 460 nm and λem=500 nm or 510 nm. Binding reactions were performed at […] in PBS pH7.4 buffer. Protein concentrations were determined by 280 nm absorbance as described above. DFHBI (Lucerna, Inc) were resuspended in DMSO as instructed to make 100 mM stock and diluted in PBS to 0.5-10 μM. Approximate emission spectra were recorded for active designs from 490 to 600 nm.
as §1

[3] = DFHBI titration of Ca2+-responsive mFAP variants in excess or absence of Ca2+; type: binding; conditions: DFHBI titration in absence and presence of Ca^2+, n=1
Text: FIG. 23. In vitro fluorescence characterization of Ca^2+-responsive mFAP variants. […] Normalized fluorescence values (n=1) are fit to a sigmoid equation using non-linear least squares fitting (lines). […] Error bars represent the standard deviation of the mean of 3 technical replicates. The means are fit to a sigmoid equation (for positive allostery) or inverse sigmoid equation (for negative allostery) with Hill coefficients of 1 using non-linear least squares fitting (lines) to extract reported Kd values in Table 5.
DFHBI Kd^+(in excess Ca^2+), DFHBI Kd^−(in absence of Ca^2+), and Ca^2+Kd (in excess DFHBI) are computed by fitting the normalized fluorescence readouts from titrations to a single binding site isotherm equation with Hill coefficient of 1 using non-linear least squares fitting. Standard deviations of the fit are reported. Hill coefficients are reported for fitting the titration data to a single binding site isotherm with variable Hill coefficient using non-linear least squares fitting, and the standard deviation of the fit are reported. For positive allosteric modulators, Kd^−/Kd^+ is reported, and for negative allosteric modulators, Kd^+/Kd^− is reported. […]

[4] = Chromophore titration, fit to single binding site isotherm: DFHO; conditions: n=1 titration; ± SD of the fit; Table 3C
Protocol: as §1

[5] = test system: E. coli cells; assay: Confocal imaging of E. coli expressing mFAP2a or mFAP2b labeled with chromophore; type: cell-based; conditions: for Chromophore selectivity, DFHBI versus DFHBI-1T: E. coli imaging
Text: FIG. 20: Characterization of brighter and chromophore-specific mFAP variants (mFAP2a and mFAP2b). (a) Design model of de novo β-barrel variant mFAP2b protein backbone (cartoon) bound to small molecule chromophore DFHBI (sticks). (b, c) Chemical structures of the chromophores DFHBI and DFHBI-1T, respectively. (d, e) In vitro titration of (d) DFHBI or (e) DFHBI-1T with purified mFAP2, mFAP2b, and mFAP2a proteins. mFAP2a/DFHBI, mFAP2a/DFHBI-1T, and mFAP2b/DFHBI complexes are brighter than the mFAP2/DFHBI complex. mFAP2a has higher affinity toward DFHBI compared to mFAP2b. mFAP2a binds DFHBI-1T with higher affinity than mFAP2 and the complex has brighter fluorescence than the DFHBI systems. Error bars represent standard deviation of the mean of 8 technical replicates. Shown are the non-linear least squares fits to a single binding-site isotherm equation (lines). […] (f-i) The images on the left of each panel were acquired using a laser scanning confocal fluorescence microscope and show pseudo-colored normalized fluorescence intensity values per pixel. Scale bars represent 10 microns. In the design models shown on the right of each panel the residues unique to mFAP2b (V13, M15) and residues unique to mFAP2a (A13, F15) are shown as sticks. Intermolecular hydrogen bonds to the chromophore are shown as black dotted lines. […]
It was hypothesized that a commercially-available variant of the DFHBI chromophore with a trifluoromethyl group, DFHBI-1T (FIG. 20 c), could pack into the void without causing steric clashes with nearby amino acid side-chains and could therefore fit into the mFAP2a binding pocket, while […] would result in steric clashes in the mFAP2b pocket. Studying the fluorescence of mFAP2a and mFAP2b in the presence of DFHBI-1T experimentally validated this hypothesis. […] Based on the absolute and relative quantum yields measured for these four complexes, the brightest protein-chromophore combination is mFAP2a with DFHBI-1T, with an absolute quantum yield of 12.9% (˜3.5-fold dimmer than EGFP).

[6] = Chromophore titration, fit to single binding site isotherm: DFHBI-1T; conditions: n=1 titration; ± SD of the fit; Table 3C
Protocol: as §1

[7] = Fluorescence activation / brightness with DFHBI; type: biochemical; conditions: for Fluorescence brightness, 100 nM DFHBI / Fluorescence brightness, 10 μM DFHBI: normalized 0 to 1 across all three chromophores, average ± SD of two protein concentrations
Protocol: as §2, §1

[8] = Fluorescence brightness with DFHO; type: biochemical; conditions: normalized 0 to 1 across all three chromophores; average ± SD of two protein concentrations
Protocol: as §1

[9] = Photophysical characterization (absorbance, excitation, emission, extinction coefficient, quantum yield); type: physicochemical
[10] = test system: fixed COS-7 cells; assay: Photostability under continuous wave imaging; type: cell-based; conditions: endoplasmic reticulum, 50 μM DFHBI, frame 1 to frame 200
Protocol: FIG. 21: Super-resolution microscopy and photostability of mFAP2a and mFAP2b. (a-g) To show the application of the mFAP system in super-resolution microscopy, mFAP2a and mFAP2b were fused to a designed protein polymerizing into a filament (DHF119). (a) The maximum diameter of the DHF119 fiber fused to the 6×His-tagged mFAP2b was estimated to be ˜22 nm based on the computational design models. (b-d) The DHF119-GS-mFAP2a-6×His fiber was labeled at 5.78 μM DFHBI-1T and (e-f) the DHF119-GS-mFAP2b-6×His was labeled at 1.83 μM DFHBI. Both systems were imaged with (b,e) fluorescence widefield microscopy and (c,f) fluorescence localization microscopy. Scale bars are 1 micron. (d,g) Normalized average intensity profiles between the yellow arrowheads shown in the widefield image (black line) or localization reconstruction (grey line) estimate the diameter of the fluorescent filament. The mean and standard deviation of the mean of the full width half maximum (FWHM) values of the three intensity profiles are annotated, 11-k) Photostability of mFAP2a and mFAP2b complexes with DFHBI and DFHBI-1T compared to AcGFP1. […] Normalized fluorescence intensity images are shown for four regions of interest (ROIs). (h, i) Frames 1 (left) to 200 (right) were acquired under continuous wave imaging at 0.885 Hz (1.13 s/frame). Scale bars are 10 microns. […]

B1: mFAP2b: SEQ ID NO:69; mFAP2.5 with V67I (protein)
chain: MSRAAQLLPGTWQVTMTNEDGQTSQGQWHFQPRSPYTMDIVAQGTISDGRPIVGYGKATVKTPDTLDIDITYPSLGNIKAQGQITMDSPTQFKWDATTKGENDFHGRLTGTLQRQE
modifications: (1)..(1) optionally absent
[1]
  Fluorescence brightness, 100 nM DFHBI-1T: 0.01 ± 0.0
  Fluorescence brightness, 10 μM DFHBI-1T: 0.01 ± 0.0
[2]; DFHBI
  Weaker affinity for the chromophore than mFAP2: ~14.1 fold
[2]
  Kd: 1.67 ± 0.08 µM
[3]
  Allostery between Ca^2+ and DFHBI binding: no allostery
[4]
  Kd: 9.01 ± 1.91 µM
[5]; 10 μM chromophore
  Fluorescent signal in E. coli with DFHBI-1T: does not give a fluorescent signal
[5]
  Chromophore selectivity, DFHBI versus DFHBI-1T: pronounced chromophore selectivity
[6]
  Kd: 42.2 ± 6.03 µM
[7]; FIG. 20 d,e
  DFHBI complex brighter than DFHBI-1T complex: ~70 fold
[7]; neutral pH
  Brighter than mFAP2.4: ~1.3 fold
  Brighter than mFAP2.5: ~1.2 fold
[7]
  Fluorescence brightness, 100 nM DFHBI: 0.82 ± 0.02
  Fluorescence brightness, 10 μM DFHBI: 1.0 ± 0.0
[7]; protein at 10-fold higher concentration than DFHBI, peak emission 511 nanometers
  Brighter fluorescence than mFAP1: approximately 4.5
[8]
  Fluorescence brightness, 100 nM DFHO: 0.01 ± 0.0
  Fluorescence brightness, 10 μM DFHO: 0.01 ± 0.0

B2: mFAP2a: SEQ ID NO:66 (protein)
chain: B1 chain with V14A, M16F
modifications: (1)..(1) optionally absent
[9]
  Absolute quantum yield with DFHBI-1T: 12.9%
[9]; with DFHBI-1T
  Brightness, times dimmer than EGFP: ~3.5 fold
[1]
  Fluorescence brightness, 100 nM DFHBI-1T: 0.59 ± 0.06
  Fluorescence brightness, 10 μM DFHBI-1T: 0.92 ± 0.05
[2]
  Kd: 0.0546 ± 0.01 µM
[4]
  Kd: 8.47 ± 1.99 µM
[5]
  Chromophore selectivity, DFHBI versus DFHBI-1T: pronounced chromophore promiscuity
[6]
  Kd: 3.7 ± 0.56 µM
[7]; low DFHBI concentration (554.88 nM), neutral pH
  Brighter fluorescence than mFAP2b: ~1.3 fold
[7]
  Fluorescence brightness, 100 nM DFHBI: 1.0 ± 0.0
  Fluorescence brightness, 10 μM DFHBI: 0.77 ± 0.12
[10]
  Photostability compared to AcGFP1: higher fluorescent signal is retained
[8]
  Fluorescence brightness, 100 nM DFHO: 0.03 ± 0.01
  Fluorescence brightness, 10 μM DFHO: 0.04 ± 0.0
